In IntAct's records for PubMed 17167415:

B1: DNA replication regulator SLD3 (Saccharomyces cerevisiae), P53135 (parent)
chain: METWEVIASVKEATKGLDLSLDHPLIIKSEDVPSNILQLLQQKNRRQLKHICMKSRKEYFLLEEYGPGFWVKWPYNYFNGYSLPERRTEVVTTVERERAKRETLKTWDELKFKELLHLWSEEPKGSCKLEKDKDLKLDMNPPDMKGESKINDYYSDPKEYIESKYYDALFSIHTPLAYFVKSNLVRLKNTCRTKYGSDSYKIAYQAMLQKFLLSIVQFKDRHDNRLLLEPFSSPIADEKRKNCLTKFVIQDENKNSSTIADLCVVLKSREIKLQILLLLEIIGLNDLDWNFRDFEKKYKLKLKKRSLNLTKKGLVRRRSKKKTSEKDKGIERITTSLDYCEQLDLYLDRACILDILLSSETPNPDAIEASNGTIQEHKKNILDKSKEASLVGFINYVLIPYFNKKVPHAVEFIIQKLKGPSMRPKRALKKVNDSTNVSSPNTVETYNRLSTSQRASRSSIINSVPSSPALRRVDANLFSRKSIASPTPELLNSRTNSNLNEFLESETRSLKRPSQLGRTKSDLTMNHLQKRQFSVSDLSTTRVPNSSTITLKTPFSHSTINAYKTMNNSFRRVGKRKDINETIRLHERVDSEENVQVQATPAVKKRTVTPNKKAQLQSIIESPLNFKDDDTHEGRKNTSNITSTPTNKPPENSSKRRVRRRLFAPEST
partner: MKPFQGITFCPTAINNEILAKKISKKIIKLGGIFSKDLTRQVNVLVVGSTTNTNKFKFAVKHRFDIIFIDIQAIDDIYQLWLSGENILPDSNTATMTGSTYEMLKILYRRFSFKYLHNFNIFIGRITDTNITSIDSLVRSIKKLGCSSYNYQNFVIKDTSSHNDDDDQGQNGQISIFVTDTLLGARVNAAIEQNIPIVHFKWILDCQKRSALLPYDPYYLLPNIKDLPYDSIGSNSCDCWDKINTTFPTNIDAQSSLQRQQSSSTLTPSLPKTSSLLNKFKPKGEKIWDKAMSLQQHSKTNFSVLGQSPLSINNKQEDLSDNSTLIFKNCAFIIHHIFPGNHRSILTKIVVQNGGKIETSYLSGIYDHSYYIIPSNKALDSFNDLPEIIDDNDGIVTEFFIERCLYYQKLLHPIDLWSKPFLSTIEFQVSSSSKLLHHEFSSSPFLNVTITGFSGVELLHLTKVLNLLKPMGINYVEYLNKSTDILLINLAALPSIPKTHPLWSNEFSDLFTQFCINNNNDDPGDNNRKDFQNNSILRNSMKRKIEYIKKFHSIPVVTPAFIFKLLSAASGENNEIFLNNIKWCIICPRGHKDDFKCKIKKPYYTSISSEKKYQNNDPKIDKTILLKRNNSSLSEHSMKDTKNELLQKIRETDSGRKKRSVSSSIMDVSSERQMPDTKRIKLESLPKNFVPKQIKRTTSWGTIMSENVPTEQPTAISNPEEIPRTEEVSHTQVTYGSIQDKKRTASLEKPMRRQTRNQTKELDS

Variants of: B1
Conditions: with dpb11_yeast DPB11, P47027

Row | Variant | effect of a mutation on the interaction
1 | T600A;S622A | disrupting interaction strength
